The subject of this data set is CPFX-treated juvenile rats. As to conditions: rat, in vivo.

Protocol: Thus, the effect of the TβII-SE isoform was analyzed either in CPFX-treated juvenile rats (24 days old) or untreated rats, by intra-articular injections of lentiviral vectors encoding a recombinant protein of the codon-optimized (co) TβRII-SE fused to the constant fragment (Fc) of the human immunoglobulin 1 (IgG1) (Lt.coTβRII-SE/Fc) or the enhanced green fluorescent protein (Lt.eGFP).
Male 24-day-old Wistar rats were housed under controlled conditions at 21±1° C. with 50%±5% relative humidity and a constant light-dark schedule (light, 8 a.m. to 8 p.m.). Food and tap water was provided ad libitum. The rats received ciprofloxacin hydrochloride on day 24 by oral administration of 200 mg/kg of body weight during 10 days. The animals were examined for clinical abnormalities including motility alterations and weighted during the treatment period.
On day 14 after ciprofloxacin treatment, 50 μl viral vectors were injected intra-articularly with either Lt.coTBRII-SE/Fc (2.35×10^6 transducing Units, TU) or Lt.eGFP (6×10^6 TU). Control animals without ciprofloxacin were treated in the same manner.

“coTβRII-SE/Fc: fusion peptide of codon-optimized TβRII-SE and the human IgG1 Fc region, SEQ ID No. 6”: the “X-ray images of knees” value was “radiolucent images with irregular borders in the femoral condyle”.

The record behind these values is patent US11072647B2, “TGF-receptor II isoform, fusion peptide, methods of treatment and methods in vitro” (Onsejo Nacional DE Investigation Cientiticay Tecnica, priority 2013, dated 2021).
